This is an account of results in article PMC11602245 (Journal of Peptide Science, 2024).

Starred links: 1 amine or outer side, 2 acyl side, 3 side chain; linkers in the order of their positions; H or OH if unused. Positions of bridges follow the written chain, without caps; N, C: chain ends. Non-standard residues stand in square brackets, D forms with d. Residues, ends and D or L forms follow the SMILES beside them. *: point of attachment. X1 = NC(=O)C[C@H](N[*:1])c1cn([C@@H](Cc2ccccc2)C(=O)[*:2])nn1; DOTA = O=C(O)CN1CCN(CC(=O)O)CCN(CC(=O)*)CCN(CC(=O)O)CC1; NMeF = CN[C@@H](Cc1ccccc1)C(=O)O

A short description of data set [1]: Metabolic stability in human plasma. It counts as in vitro ADME. The procedure:
The human plasma used in the in vitro stability assays was purchased from Sigma‐Aldrich (H4522‐20ML).
The stability assays were conducted by incubating the ^111In‐labeled peptide conjugates in human plasma at 37°C for 24 h (n = 2). The detailed description of the procedure is described elsewhere.[13]
In order to assess the proteolytic stability of the new radiolabeled peptide conjugates, in vitro stability studies were conducted in blood plasma. [^111In]In‐XG1 and [^111In]In‐XG1‐A/B/C were incubated in human plasma at 37°C, and samples were taken after 24 h for their analysis by γ‐HPLC (Figure 3). […] This hypothesis is also supported by previously reported data that identified Thr^10‐Phe^11 as one of the main cleavage sites of the native SST‐14.[15] […] To better understand the degradation of [^111In]In‐XG1‐C over time, the stability was also determined after 4 h incubation in plasma (Figure 3D), after which only 27% of the original radiopeptide remained intact. […] We hypothesize that the incorporation of the methylated amino acid (N‐Me‐Phe^11) leads to a conformation of the peptide that facilitates the accessibility of amide bonds to proteases. Similar observations have been reported for other triazolo‐peptidomimetics.[11] […] For example, one of the main enzymes involved in the degradation of the native SST‐14 is neprilysin (NEP), a membrane‐bound metalloprotease abundantly expressed in various tissues.[21], [22] The role of this enzyme in the degradation of peptides cannot be contemplated with in vitro plasma stability assays but would have to be assessed in vivo (e.g., mice).[23]

The next data set is described as follows: human plasma. The following applies: 37°C, up to 24 h.
For data set [2] the following is noted: cited from earlier work.
Data set [3] deals with T1, SST2R‐overexpressing AR42J cells (Rattus norvegicus, UniProt P30680).
T1 construct: incubating the ^111In‐labeled peptide conjugates with SST2R‐overexpressing AR42J cells in six well plates; host or cells: AR42J cells
Nature of the data set: Cell binding and internalization studies. It counts as cell-based. The following applies: after 2 h, corresponds to the determined unspecific binding (blocking experiments). Here is the method: The AR42J cell line was purchased from the American Type Culture Collection (ATCC).
The cell binding and internalization assays were performed by incubating the ^111In‐labeled peptide conjugates with SST2R‐overexpressing AR42J cells in six well plates as previously described (n = 2–3 in triplicates).[13]
The binding of radiolabeled somatostatin derivatives to multiple SSTRs is of high interest because it allows to address a wide range of cancers with distinctive SSTR‐subtype expression patterns.[24] Yet, SST2R is of major medical importance because it is over‐expressed or co‐expressed by most cancer types (e.g., NETs).[25] Thus, we first focused on SST2R by conducting cell binding and internalization experiments with the SST2R‐expressing cell line AR42J. In order to determine the specificity of the binding and internalization of the radiolabeled peptides, the octapeptide TATE (DPhe^1‐cycle(Cys^2‐Phe^3‐DTrp^4‐Lys^5‐Thr^6‐Cys^7)Thr^8) was used in excess for blocking experiments. […] These values are in accordance with previously reported data.[13] […] From the total applied activity, <1% was found at the cell membrane and internalized, which corresponds to the determined unspecific binding (blocking experiments). See Figure S9 for the results of the binding and internalization studies. […]

T1 sequence (P30680 whole entry): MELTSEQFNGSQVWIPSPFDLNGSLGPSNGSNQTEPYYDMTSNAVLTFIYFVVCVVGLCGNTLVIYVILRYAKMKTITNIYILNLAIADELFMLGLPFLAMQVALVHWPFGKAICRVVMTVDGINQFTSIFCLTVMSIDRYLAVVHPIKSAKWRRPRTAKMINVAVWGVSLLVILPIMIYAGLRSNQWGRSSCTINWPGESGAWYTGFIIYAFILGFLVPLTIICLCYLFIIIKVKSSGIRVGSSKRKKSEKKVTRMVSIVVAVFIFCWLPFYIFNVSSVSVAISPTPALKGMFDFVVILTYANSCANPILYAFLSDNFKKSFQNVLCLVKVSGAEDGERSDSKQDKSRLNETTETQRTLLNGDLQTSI

In turn, `C[C@H](NC(=O)CN1CCN(CC(=O)O)CCN(CC(=O)O)CCN(CC(=O)O)CC1)C(=O)NCC(=O)N[C@H]1CSSC[C@@H](C(=O)O)NC(=O)[C@H](CO)NC(=O)[C@H]([C@@H](C)O)NC(=O)[C@H](Cc2ccccc2)NC[C@H]([C@@H](C)O)NC(=O)[C@H](CCCCN)NC(=O)[C@@H](Cc2c[nH]c3ccccc23)NC(=O)[C@H](Cc2ccccc2)NC(=O)[C@H](Cc2ccccc2)n2cc(nn2)[C@H](CC(N)=O)NC(=O)[C@H](CCCCN)NC1=O` [[^111In]In‐XG1‐B, [DOTA,Asn^5‐Ψ[Tz]‐Phe^6,DTrp^8,Thr^10‐Ψ[NH]‐Phe^11]SST‐14, metal not drawn] returned a fraction remaining at 24 h in data set [1] (human, plasma) greater than 97%.

As for “[DOTA,Asn^5‐Ψ[Tz]‐Phe^6,DTrp^8,β‐Phe^11]SST‐14”, the not cleaved result in the data set “human plasma” is on record as “more than 97% of intact peptide after 24 h”.

Regarding “Ala^1 Gly^2 Cys^3 Lys^4 Asn^5 Phe^6 Phe^7 DTrp^8 Lys^9 Thr^10 Phe^11 Thr^12 Ser^13 Cys^14”, in data set [2], the cleaved bond result is reported as “Thr10-Phe11, major”.

`C[C@H](NC(=O)CN1CCN(CC(=O)O)CCN(CC(=O)O)CCN(CC(=O)O)CC1)C(=O)NCC(=O)N[C@H]1CSSC[C@@H](C(=O)O)NC(=O)[C@H](CO)NC(=O)[C@H]([C@@H](C)O)NC(=O)[C@H](Cc2ccccc2)NC(=O)[C@H]([C@@H](C)O)NC(=O)[C@H](CCCCN)NC(=O)[C@@H](Cc2c[nH]c3ccccc23)NC(=O)[C@H](Cc2ccccc2)NC(=O)[C@H](Cc2ccccc2)n2cc(nn2)[C@H](CC(N)=O)NC(=O)[C@H](CCCCN)NC1=O` [[^111In]In‐XG1, [DOTA,Asn^5‐Ψ[Tz]‐Phe^6,DTrp^8]SST‐14, metal not drawn] ({DOTA}-AGCK[X1]F[dW]KTFTSC-OH; disulfide 3-13): the “major radiometabolite at rt = 6.4 min” value in data set [1] was 35.3%. Moreover, the share remaining at 24 h in data set [1] (human, plasma) amounted to 56%.

Consider `C[C@H](NC(=O)CN1CCN(CC(=O)O)CCN(CC(=O)O)CCN(CC(=O)O)CC1)C(=O)NCC(=O)N[C@H]1CSSC[C@@H](C(=O)O)NC(=O)[C@H](CO)NC(=O)[C@H]([C@@H](C)O)NC(=O)[C@H](Cc2ccccc2)N(C)C(=O)[C@H]([C@@H](C)O)NC(=O)[C@H](CCCCN)NC(=O)[C@@H](Cc2c[nH]c3ccccc23)NC(=O)[C@H](Cc2ccccc2)NC(=O)[C@H](Cc2ccccc2)n2cc(nn2)[C@H](CC(N)=O)NC(=O)[C@H](CCCCN)NC1=O` [[^111In]In‐XG1‐C, [DOTA,Asn^5‐Ψ[Tz]‐Phe^6,DTrp^8,N‐Me‐Phe^11]SST‐14, metal not drawn] ({DOTA}-AGCK[X1]F[dW]KT[NMeF]TSC-OH; disulfide 3-13), for which the share remaining at 4 h in data set [1] (human, plasma) amounted to 27%.

Consider “[DOTA,Asn^5‐Ψ[Tz]‐Phe^6,DTrp^8,β‐Phe^11]SST‐14 [[^111In]In‐XG1‐A]”, for which, in data set [3], the “total applied activity found at the cell membrane and internalized” value is listed as less than 1%.

For “[DOTA,Asn^5‐Ψ[Tz]‐Phe^6,DTrp^8,Thr^10‐Ψ[NH]‐Phe^11]SST‐14”, in the data set “human plasma”, the not cleaved entry is given as “more than 97% of intact peptide after 24 h”.

What is called amount remaining is the share of the starting amount still present when the sample was taken.
